Measured values as given in paper PMC9943658.

Assays:
His-T7-hnRNP C1 ΔACIDIC = His-T7-hnRNP C1 ΔACIDIC (UniProt P07910); experiment: SEC
His-T7-hnRNP C1 ΔRRM = His-T7-hnRNP C1 ΔRRM (UniProt P07910); experiment: SEC

| Substance | stoichiometry N (His-T7-hnRNP C1 ΔACIDIC) | stoichiometry N (His-T7-hnRNP C1 ΔRRM) |
| --- | --- | --- |
| His-T7-hnRNP C1 ΔACIDIC (from UniProt P07910-2 1-293) (natural protein) | 2 | – |
| His-T7-hnRNP C1 ΔRRM (from UniProt P07910-2 1-293) (natural protein) | – | 4 |
